The text below walks through data of patent US20210340263A1 (WISTAR INSTITUTE, published 2021).

The test addresses T1, murine FSHR (murine, UniProt P35378 18-692).
T1 construct: whole, on cells; also called mouse FSHR
T1 sequence (looked up): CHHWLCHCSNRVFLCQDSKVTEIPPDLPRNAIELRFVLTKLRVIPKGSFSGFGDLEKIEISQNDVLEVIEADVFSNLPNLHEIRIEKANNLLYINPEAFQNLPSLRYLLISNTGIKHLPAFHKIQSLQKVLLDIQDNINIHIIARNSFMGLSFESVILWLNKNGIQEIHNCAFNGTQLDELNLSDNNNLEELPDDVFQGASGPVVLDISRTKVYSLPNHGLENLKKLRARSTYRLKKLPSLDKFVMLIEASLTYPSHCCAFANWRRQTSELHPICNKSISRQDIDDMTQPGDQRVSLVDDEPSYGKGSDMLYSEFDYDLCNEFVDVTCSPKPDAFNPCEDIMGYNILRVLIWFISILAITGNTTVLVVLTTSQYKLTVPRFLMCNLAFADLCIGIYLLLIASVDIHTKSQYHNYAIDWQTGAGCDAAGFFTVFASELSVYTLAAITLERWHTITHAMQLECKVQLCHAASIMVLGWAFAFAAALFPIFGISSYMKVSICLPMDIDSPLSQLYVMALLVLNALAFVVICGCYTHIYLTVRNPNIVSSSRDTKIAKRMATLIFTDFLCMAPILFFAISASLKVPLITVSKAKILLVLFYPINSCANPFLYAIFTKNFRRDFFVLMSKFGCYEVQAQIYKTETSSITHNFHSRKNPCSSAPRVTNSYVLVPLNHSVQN
Description: immunofluorescence, 293T cells transiently transduced with murine FSHR. An excerpt:
The use of 9H11 for staining FSHR in immunocytochemistry through immunofluorescence was validated.

B1: 9H11 monoclonal antibody (murine, original) (antibody, mouse IgG2a, kappa, V domains shown)
VH: QVNLKESGPGILQPSQTLNLTCSFSGFSLSTSGMGVGWIRQPSGKGLDWLAHIWWDDDKRYNPALKSRLTISKDASSNQVFLKIASVVTADTATYYCVQINYGNYRFDNWGHGTTLTVSS
VL: not shown
notes: Mouse hybridoma antibody; also called murine monoclonal antibody 9H11; 9H11 antibody
For B1, the binding result is on record as “binds”.
